These results are taken from patent US20210380678A1 (SURROZEN OPERATING, published 2021).

Numbering of substitutions follows the chain as printed.

T1: human ASGR1 extracellular domain (hASGR1 ECD) (human, UniProt P07306 62-291, biotinylated (His-Avi tag))
T1 construct: His-Avi tag at the N-terminus, biotinylated for BLI; also called human ASGR1 ECD
T1 sequence: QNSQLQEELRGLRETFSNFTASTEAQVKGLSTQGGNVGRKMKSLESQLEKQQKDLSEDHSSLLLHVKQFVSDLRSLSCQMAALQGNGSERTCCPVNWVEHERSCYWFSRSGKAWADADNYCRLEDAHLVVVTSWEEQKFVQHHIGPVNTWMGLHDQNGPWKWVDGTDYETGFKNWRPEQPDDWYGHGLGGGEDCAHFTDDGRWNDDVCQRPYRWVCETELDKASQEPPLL

T2: cynomolgus ASGR1 extracellular domain (cynoASGR1 ECD) (cynomolgus, UniProt P07306 62-291 (human entry))
T2 construct: Cloned with a His/Avi tag
T2 chain: T1 sequence with S3A, E7R, F16L, T91A

B1: LP1-8M24 (antibody, V domains shown)
VH: QVQLQQSGAELARPGASVKLSCKASGYTFTNYGINWVKQRTGQGLEWIGEIFPRSDNTFYNEKFKGKATLTADKSSTTAYMELRSLTSEDSAVYFCARKGRDYGTSHYFDYWGQGTTLTVSS
VL: DIQMTQSPASLSVSVGETVTITCRISENIYSNLAWYQQKQGKSPHLLVYAAINLADGVPSRFSGSGSGTQFSLKINSLQSEDFGSYYCQHFWGTPFTFGSGTKLEIK
notes: Hybridoma antibody as screened
B2: LP1-1P13 (antibody, V domains shown)
VH: EVQLQQSGPELVKPGASVKISCKASGYSFTDYFMNWVKQSHGKSLEWIGRFNPFNGQTFYNQEFKGKATLTVDKSSSTAHMELRSLTSEDSAVYYCARRGRYDVYYVLDYWGQGTSVTVSS
VL: DIQMTQSPASLSASVGQTVIITCRTSENIYSNLAWYQQKQGKSPQLLVYAATNLADGVPSRFSGSGSGTQYYLKINSLQSEDFGSYYCQHFWGSTWTFGGGTKLDIK
notes: as for B1
B3: LP1-2I22 (antibody, V domains shown)
VH: B2 VH with D31G, S77D, V107A
VL: B2 VL with Q17E, T25A, A50G, P59T, Y71F, Y72S, N76D, S94T, D105E
notes: as for B1
B4: LP1-10C22 (antibody, V domains shown)
VH: EVQLVESGGDLVKPGGSLKLSCAASGFTFSSYGMSWVRQTPDKRLEWVASISSGGSYTYYPDSVKGRFTISRDNAQNTLYLQMSSLKSEDTAMYYCVRHEEYGKSGFAYWGQGTLITVSA
VL: DVLMTQTPLSLPVSLGDQASISCRSSQGIVHSNGNIYLEWYLQKPGQSPKLLIYKVSNRFSGVPDRFSGSGSGTDFTLKISRVEAEDLGVYYCFQGSHVPPTFGGGTKLEIK
notes: as for B1
B5: LP1-1N15 (antibody, V domains shown)
VH: EVQLQQSGPELVKPGASVKMSCKASGYTFTDYYMNWVKQSHGESLEWIGRVIPSNGGTNYNQKFKGKATLTVDKSLTTAYMQLNSLTSEDSAVYFCARGMDYWGPGTSVTVSS
VL: DIKMTQSPSSMYASLGERVTITCKASQDINSHLSWFQQKPGKSPKTLIIRANRLVDGVPSRFSGSGSGQDYSLTISSPEYEEMGIYYCLQYDEFPFTFGGGTKLEIK
notes: as for B1
B6: LP1-9M16 (antibody, V domains shown)
VH: EVQLQQSGPELVKPGASVKMSCKASGYTFTDYYMNWVKQSHGKSLEWIGRVNPNNGGSNYNQKFKGKATLTVDKSLSTAYMQLNSLTSEDSAVYYCASRNFDVWGAGTTVTVSS
VL: B5 VL with H32Y, I49Y, V55A, S77N, P78L, E82D, F96L, G100A, I106L
notes: as for B1
B7: LP1-3E20 (antibody, V domains shown)
VH: QVQLQQSGAELAKPGASVKMSCKASGYTFTSYWIHWVKQRPGQGLEWIGYINPSSGYAEYNQKFKVRATLTADKSSSTAYMQLSSLTSEDSAVYYCARESYYSFDYTMDYWGQGTSVTVSS
VL: DIKMTQSPSSMYASLGERVTITCKASQDINSYLSWFQQKPGKSPKTLIYRANRLVDGVPSRFSGSGSGQDYSLTISSLEYEDMGIYYCLQYDDLWTFGGGTKLEIK
notes: as for B1
B8: LP1-7I20 (antibody, V domains shown)
VH: EVKLVESGGGLVQPGGSLSLSCAASGFTFTDYYMSWVRQPPGKALEWLALIRNKANGYTTEYSASVKGRFTISRDNSQSILYLQMNALRAEDSATYYCAVTYGAYWGQGTLVTVSA
VL: DIQMTQSPASLSASVGETVTITCRTSENIYSYLAWYQQKQGKSPQLLVYNAKTLAKGVPSRFSGSGSGTQFSLKINGLQPEDFGNYYCQHHYGTPYTFGGGTKVEIK
notes: as for B1
B9: LP1-1F8 (antibody, V domains shown)
VH: EVKLVESGGGLVKPGGSLKLSCAASGFTFSTYTMSWVRQTPAKRLEWVATISSIGVNTYYPDSVKGRFTISRDNARNTLYLQVSSLRSEDTAMYYCARHVDYYDGISFDYWGQGTTLTVSS
VL: DIVMSQSPSSLAVSAGEKVTMSCKSSQSLFNSRTRKNYLAWYQQKPGQSPKLLIYWASTRESGVPDRFTGSGSGTDFTLTISSVQAEDLAVYYCKQSYYLLTFGAGTKLELK
notes: as for B1
B10: LP1-2I13 (antibody, V domains shown)
VH: EVQLVESGGGLVKPGGSRKLSCAASGFTFSDYGMHWVRQAPEKGLEWVAYISSGSSTIYYADTVKGRFTISRDNAKNTLFLQMTSLRSEDTAMYYCSRKGGFGDYEKSYAMDYWGQGTSVTVSS
VL: DIQMTQSPASLSASVGETVTITCRASENIYSYLVWYQQKQGKSPQLLVYNAKTLAEGVPSRFSGSGSGTQFSLKINSLQPEDFGSYYCQHHYGTWTFGGGIKLEIK
notes: as for B1
B11: LP1-1P5 (antibody, V domains shown)
VH: QVQLQQSGPELVRPGTSVKISCKASGYTFLTYWMNWVKQRPGQGLEWIGQIFPATGITYYSEMFKDKATLTEDTSSTTAYMQLSSLTSEATAVYFCARRRAYHSNFFDYWGQGTTLTVSS
VL: DIVMTQSQKFMSTSVGDRVSVTCKASQNVGTNVAWYQQKPGQSPKALIYSASYRYSGVPDRFTGSGSGTDFTLTISNVQSEDLAEYFCQQYNSYPLTFGAGTKLELK
notes: as for B1
B12: LP1-3A24 (antibody, V domains shown)
VH: EVQLQQSGPELVKPGASVKMSCKASGYTFTDYYINWVRQSHGKSLEWIGRVIPSNGGSNYNQKFKGKATLTVDKSLSTAYMHLNSLTSEDSAVYYCATQLGRWGQGTLVTVSA
VL: B11 VL with T31S, Y36F, A51S, S76T, Y94F
notes: as for B1
B13: LP1-2E12 (antibody, V domains shown)
VH: DVQLQESGPGLVKPSQSLSLTCSVTGYSITSGYYWNWIRQFPGNKLEWMGSIGYDDTNHYNPSLKNRISITRDTSKNQFFLKLNSVTTEDTATYYCAGDYPFAFWGQGTLVTVSA
VL: DVVVTQTPLSLPVSFGDRVSISCRSSQSLANSYGNTYLSWYLHKPGQSPQLLIYGISNRFSGVPDRFSGSGSGTDFTLKISTIKPEDLGMYYCLQGTHQPLTFGAGTKLELK
notes: as for B1
B14: LP1-9C3 (antibody, V domains shown)
VH: QVTLKESGPGILQPSQTLSLTCSFSGFSLSTSYMGVSWIRKPSGKGLEWLAHIFWDDDKRYNPSLKSRLTISKDTSSNQVFLMITSVETADTATYYCGGPYYPFTYWGQGTLVTVSA
VL: B13 VL with R18Q, M90I, G96A, L101W, A105G, L111I
notes: as for B1
B15: LP1-7B13 (antibody, V domains shown)
VH: EVQLQQSGPEVVKPGASVKMSCKTSGFTFTDYYMNWVKQGHGKSLEWIGRVNPSNDDTRYNQKFKGKATLTVDKSLSTAYMQLNSLTSEDSAVYYCTRWFYFDYWGQGTTLTVSS
VL: DIVLTQSPATLSVTPGDRVSLSCRASQSISNYLHWYQQKSHESPRLLIKFASQSISGIPSRFSGSGSGTDFTLTINSVETEDFGMYFCQQSNSWPLTFGAGTKLELK
notes: as for B1
B16: LP1-6H3 (antibody, V domains shown)
VH: QAYLQQSGAELVRPGASVKMSCKASGYTFSRFDMHWVKQTPRQGLEWIGVIYPGNGDTSYNQKFRDKASLTVDKSSSTAYMQLSSLTSEDSAVYFCASSYYGNPWGQGTTLTVSS
VL: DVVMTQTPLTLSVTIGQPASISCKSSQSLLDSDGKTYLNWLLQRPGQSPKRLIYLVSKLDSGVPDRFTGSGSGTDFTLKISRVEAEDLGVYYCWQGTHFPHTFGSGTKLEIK
notes: as for B1

The first test has as its target T1, human ASGR1 extracellular domain …. Put plainly: hybridoma screening on recombinant ECD.
B1: the binding result is listed as “binds”.
With B2, the binding result is “binds”.
On to B3, for which the binding result is recorded as “binds”.
Consider B4, for which the binding result is recorded as “binds”.
Consider B5, for which the binding result is listed as “binds”.
With B6, the binding result is “binds”.
Still for that read-out and setting: the result for B7 reads “binds”; that for B8, “binds”; that for B9, “binds”.
With B10, the binding result is recorded as “binds”.
On the same count and under the same terms, the result for B11 reads “binds”.
With B12, the binding result is “binds”.
With B13, the binding result is “binds”.
As to B14, the binding result is reported as “binds”.
As for B15, the binding result is “binds”.
As to B16, the binding result is “binds”.

The next test addresses T2, cynomolgus ASGR1 extracellular domain …. The test can be described thus: hybridoma screening on recombinant ECD.
B1: the binding result is given as “binds”.
With B2, the binding result is “binds”.
As to B3, the binding result was “binds”.
Take B4: the binding result is “binds”.
Consider B5, for which the binding result is “binds”.
For the molecule B6, the binding result is “binds”.
In the case of B7, the binding result was “binds”.
With B8, the binding result is listed as “binds”.
With B9, the binding result is on record as “binds”.
For the molecule B10, the binding result is “binds”.
Regarding B11, the binding result is “binds”.
Consider B12, for which the binding result is recorded as “binds”.
B13: the binding result was “binds”.
Same read-out and setting: the same measure for B14: “binds”.
Same read-out and setting: the result for B15 reads “binds”.
B16: the binding result was “binds”.
